For one molecule, Kd results are on record in PMC9695703, “Selection of an Aptamer against the Enzyme 1-deoxy-D-xylulose-5-phosphate Reductoisomerase from Plasmodium falciparum”.

Series [1] has as its target T1, 6His-GST-PfDXRt-6His (1-deoxy-D-xylulose-5-phosphate reductoisomerase) (Plasmodium falciparum, UniProt Q8IKG4 73-488).
T1 sequence: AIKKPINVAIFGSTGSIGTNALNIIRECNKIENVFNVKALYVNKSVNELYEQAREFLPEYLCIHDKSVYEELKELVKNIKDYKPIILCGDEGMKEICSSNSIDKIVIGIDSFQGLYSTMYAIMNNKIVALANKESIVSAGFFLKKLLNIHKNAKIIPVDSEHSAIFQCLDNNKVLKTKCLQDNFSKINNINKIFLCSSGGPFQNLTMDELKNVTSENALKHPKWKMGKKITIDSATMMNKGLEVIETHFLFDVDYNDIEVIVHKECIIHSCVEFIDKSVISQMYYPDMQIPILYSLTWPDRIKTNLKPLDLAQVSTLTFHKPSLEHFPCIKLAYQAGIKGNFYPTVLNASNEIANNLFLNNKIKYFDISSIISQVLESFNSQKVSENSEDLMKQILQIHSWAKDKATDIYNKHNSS
Kind of series: bead-based flow cytometry saturation binding; protein on latex beads; Bmax 0.79. The settings on record: protein: recombinant; tags: N-term 6xHis-GST, C-term 6xHis; label: 5' 6FAM; folded 90/5/37 C before use. For orientation: Flow cytometry measures light scatter and fluorescence of single cells or particles in a stream.

A further series concerns the target T2, EcDXR-6His (Escherichia coli, UniProt P45568 1-398).
T2 sequence: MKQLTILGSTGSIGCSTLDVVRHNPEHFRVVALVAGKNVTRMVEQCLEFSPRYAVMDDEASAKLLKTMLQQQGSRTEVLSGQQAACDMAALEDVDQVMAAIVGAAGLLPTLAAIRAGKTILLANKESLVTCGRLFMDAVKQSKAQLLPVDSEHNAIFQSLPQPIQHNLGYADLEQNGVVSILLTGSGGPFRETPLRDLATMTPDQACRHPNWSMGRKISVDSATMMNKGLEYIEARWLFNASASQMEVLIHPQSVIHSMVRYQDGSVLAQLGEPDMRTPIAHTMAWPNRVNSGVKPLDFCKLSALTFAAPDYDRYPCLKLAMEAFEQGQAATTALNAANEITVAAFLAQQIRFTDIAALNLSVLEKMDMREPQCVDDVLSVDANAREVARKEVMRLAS
The series is described as follows: bead-based flow cytometry saturation binding; protein on latex beads; Bmax 1.67; Kd: PBS pH 7.4, 60 min, dark, 0.3-5.4 uM aptamer; EMSA: 10 mM NaCl, 0.02% Tween-20, 50 mM HEPES pH 8.0, RT 60 min, 2% agarose 0.5x TB. The note with it: protein: recombinant; tags: C-term 6xHis; label: 5' 6FAM; folded 90/5/37 C before use. Background: Mobility shift assays separate free from complexed probe on a gel.

B1: 6FAM-D10 (ssDNA)
DNA: ATACCAGCTTATTCAATTCACTGCCACACCACGCCCTGCCATCCGCACATCCATCGTGAGATAGTAAGTGCAATCT
With B1, the Kd (usually the free concentration of one partner at which half of the binding sites on the other are occupied at equilibrium, for simple one-to-one binding) in series [1] is 260 ± 70 nM; with EcDXR-6His, 290 ± 90 nM.
